Results on one molecule are retold here after paper PMC12733864 (International Journal of Molecular Sciences, 2025).

This experiment has as its target T1, recombinant D III domain of the WNV structural E glycoprotein (West Nile virus; strain of the …, UniProt Q9Q6P4).
T1 construct: also called recombinant DIII protein; recombinant analog of D III of WNV glycoprotein E
Put plainly: BLI; Octet K2, NTA biosensors loaded with recombinant DIII (20 ug/mL); antibodies in solution at five concentrations from 10.4 to 166.4 nM; PBS; global fit of the 1:1 model; triplicate. Conditions: both partners purified.

T1 sequence (Q9Q6P4 whole entry, looked up, the tested form may be a part): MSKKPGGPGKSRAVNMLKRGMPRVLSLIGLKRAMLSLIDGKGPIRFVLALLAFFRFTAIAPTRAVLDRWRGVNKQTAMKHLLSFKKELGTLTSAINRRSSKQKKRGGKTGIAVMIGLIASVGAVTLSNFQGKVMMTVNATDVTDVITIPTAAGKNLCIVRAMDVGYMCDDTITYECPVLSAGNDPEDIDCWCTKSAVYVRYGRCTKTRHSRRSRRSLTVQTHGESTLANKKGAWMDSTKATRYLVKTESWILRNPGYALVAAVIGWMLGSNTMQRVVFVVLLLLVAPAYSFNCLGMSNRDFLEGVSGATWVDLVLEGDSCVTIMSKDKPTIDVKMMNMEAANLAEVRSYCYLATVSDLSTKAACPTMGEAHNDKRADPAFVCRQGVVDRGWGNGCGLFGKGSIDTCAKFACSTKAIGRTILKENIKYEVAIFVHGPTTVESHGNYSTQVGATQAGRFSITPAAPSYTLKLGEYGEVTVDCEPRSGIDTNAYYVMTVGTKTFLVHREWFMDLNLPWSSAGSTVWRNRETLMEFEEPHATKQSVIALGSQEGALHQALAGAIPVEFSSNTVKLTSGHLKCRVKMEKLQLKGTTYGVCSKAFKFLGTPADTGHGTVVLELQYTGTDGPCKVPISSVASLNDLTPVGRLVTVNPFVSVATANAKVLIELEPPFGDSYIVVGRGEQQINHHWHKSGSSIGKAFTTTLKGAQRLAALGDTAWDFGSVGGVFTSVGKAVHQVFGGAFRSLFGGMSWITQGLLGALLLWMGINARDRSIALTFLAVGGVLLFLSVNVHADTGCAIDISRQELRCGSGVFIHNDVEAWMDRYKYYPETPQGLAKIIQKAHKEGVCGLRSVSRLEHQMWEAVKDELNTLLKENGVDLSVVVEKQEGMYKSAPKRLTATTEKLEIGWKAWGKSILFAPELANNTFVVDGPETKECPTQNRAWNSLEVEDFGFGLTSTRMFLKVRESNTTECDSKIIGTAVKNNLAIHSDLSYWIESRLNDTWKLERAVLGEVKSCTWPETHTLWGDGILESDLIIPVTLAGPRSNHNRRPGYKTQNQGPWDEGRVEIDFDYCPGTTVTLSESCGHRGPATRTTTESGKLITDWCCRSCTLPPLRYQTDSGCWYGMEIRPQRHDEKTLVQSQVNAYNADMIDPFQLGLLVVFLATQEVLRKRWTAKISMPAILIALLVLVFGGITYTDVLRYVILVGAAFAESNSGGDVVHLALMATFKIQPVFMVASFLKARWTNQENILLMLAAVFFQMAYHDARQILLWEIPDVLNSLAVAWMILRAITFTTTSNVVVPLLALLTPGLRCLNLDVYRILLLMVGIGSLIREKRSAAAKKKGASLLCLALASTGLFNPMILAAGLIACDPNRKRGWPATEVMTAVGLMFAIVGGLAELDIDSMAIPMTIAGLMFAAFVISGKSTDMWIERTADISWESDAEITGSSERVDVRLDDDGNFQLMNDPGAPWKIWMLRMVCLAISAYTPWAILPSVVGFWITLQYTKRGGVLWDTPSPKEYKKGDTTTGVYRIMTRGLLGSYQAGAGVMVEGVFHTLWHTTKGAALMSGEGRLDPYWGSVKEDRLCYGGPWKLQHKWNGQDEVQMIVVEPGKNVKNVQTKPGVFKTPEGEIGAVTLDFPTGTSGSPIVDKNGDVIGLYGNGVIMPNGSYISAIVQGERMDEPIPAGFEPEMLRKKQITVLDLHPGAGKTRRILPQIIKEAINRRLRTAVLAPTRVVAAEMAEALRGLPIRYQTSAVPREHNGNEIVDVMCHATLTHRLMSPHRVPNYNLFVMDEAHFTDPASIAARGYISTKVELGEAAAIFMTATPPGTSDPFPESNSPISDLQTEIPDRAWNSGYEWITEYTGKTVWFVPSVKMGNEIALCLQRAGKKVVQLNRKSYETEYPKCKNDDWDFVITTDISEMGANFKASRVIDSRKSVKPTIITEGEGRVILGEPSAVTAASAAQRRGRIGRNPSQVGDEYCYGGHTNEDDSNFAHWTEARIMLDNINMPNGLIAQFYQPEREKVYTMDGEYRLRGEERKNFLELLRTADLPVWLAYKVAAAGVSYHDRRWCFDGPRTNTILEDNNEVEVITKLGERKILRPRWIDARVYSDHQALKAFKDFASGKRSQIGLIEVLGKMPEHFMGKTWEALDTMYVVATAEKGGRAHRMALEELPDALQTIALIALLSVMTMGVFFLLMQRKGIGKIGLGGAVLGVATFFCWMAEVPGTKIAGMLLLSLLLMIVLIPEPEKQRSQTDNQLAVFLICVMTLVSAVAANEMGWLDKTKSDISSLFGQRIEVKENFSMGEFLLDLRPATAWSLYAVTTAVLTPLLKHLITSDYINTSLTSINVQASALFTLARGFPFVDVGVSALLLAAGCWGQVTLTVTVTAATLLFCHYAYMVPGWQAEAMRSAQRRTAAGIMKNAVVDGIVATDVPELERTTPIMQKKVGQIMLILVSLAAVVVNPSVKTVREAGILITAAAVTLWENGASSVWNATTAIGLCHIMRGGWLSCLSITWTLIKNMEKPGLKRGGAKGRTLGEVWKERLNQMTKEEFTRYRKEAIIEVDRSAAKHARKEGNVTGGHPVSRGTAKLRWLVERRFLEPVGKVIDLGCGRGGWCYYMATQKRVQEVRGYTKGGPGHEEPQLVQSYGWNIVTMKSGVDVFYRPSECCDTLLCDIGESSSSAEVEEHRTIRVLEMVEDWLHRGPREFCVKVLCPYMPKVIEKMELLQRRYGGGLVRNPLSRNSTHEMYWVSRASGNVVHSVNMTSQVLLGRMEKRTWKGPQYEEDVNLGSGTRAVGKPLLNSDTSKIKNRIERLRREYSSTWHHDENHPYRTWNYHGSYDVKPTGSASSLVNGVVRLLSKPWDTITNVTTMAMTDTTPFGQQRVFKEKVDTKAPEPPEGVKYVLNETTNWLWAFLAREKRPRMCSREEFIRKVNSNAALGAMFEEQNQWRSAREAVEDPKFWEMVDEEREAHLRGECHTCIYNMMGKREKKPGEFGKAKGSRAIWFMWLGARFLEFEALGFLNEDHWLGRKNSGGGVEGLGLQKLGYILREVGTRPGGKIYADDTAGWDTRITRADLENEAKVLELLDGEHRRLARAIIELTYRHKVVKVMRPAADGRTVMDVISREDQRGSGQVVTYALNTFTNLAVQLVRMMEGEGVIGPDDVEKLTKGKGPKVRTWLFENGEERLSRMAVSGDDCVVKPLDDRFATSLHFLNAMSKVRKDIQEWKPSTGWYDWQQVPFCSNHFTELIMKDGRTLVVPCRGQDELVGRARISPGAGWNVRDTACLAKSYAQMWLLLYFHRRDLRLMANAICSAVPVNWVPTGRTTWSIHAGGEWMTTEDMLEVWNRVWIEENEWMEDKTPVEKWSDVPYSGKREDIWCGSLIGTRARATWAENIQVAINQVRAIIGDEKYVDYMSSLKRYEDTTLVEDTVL

B1: recombinant chimeric monoclonal antibody (mAb) 900, variant V4 (scFv-Fc, M252Y/S254T/T256E and H433K/N434F in the human IgG1 Fc) (antibody, V domains shown)
VH: EVQLQQSGAELVKPGASVKLSCKASGYIFTNYDINWVRQRPEQGLEWIGWIFPEDGRTKNNEKFKGKATLTTDKSSSTAYMQLSRLTSEDSAVYFCARGGGYGNYFDYWGQGTLVTVS
VL: DIVMTQAHKFMSTSVGDRVSITCKASQDVSTAVAWYQQKPGQSPKVLIYWASTRHTGVHDRFTGSGSGTDYTLTISSVQAEDLALYYCQQHYSNPLTFGAGTKLELK
Usually Kd stands for the constant that tells how readily two partners part at equilibrium. For the molecule B1, the Kd was roughly 2.3 nM.
